Measurements published in paper doi:10.1101/388868.

Molecular target: C. elegans UNC-13 long isoform residues 1-258 bearing the K49E mutation (C. elegans)
Assay: ITC

Kd: 1290 nM
B1: C. elegans UNC-10 residues 62-121 WT (domain or fragment)
chain: KLVGTQDDAICQICQKTKFADGIGHKCFYCQLRSCARCGGRAQSKNKAIWACSLCQKRQQ
